Test results published in US20240409629A1 (CHIA TAI TIANQING PHARMACEUTICAL GROUP, published 2024).

Experiments:
human CLDN18.2 [1] = target: human CLDN18.2 (human); test: cell-based or functional assay
human CLDN18.2 [2] = target: T1, human CLDN18.2 (human); test: FACS, NUGC-4 cells (natural CLDN18.2)
T1 construct: also called claudin18.2
Method: (§1) Based on the FACS method, the binding activity of anti-CLDN18.2 humanized antibodies for the cell lines KATOIII (Cell Bank of the Chinese Academy of Sciences) and NUGC-4 (Cell Bank of the Chinese Academy of Sciences) naturally expressing CLDN18.2 was analyzed. […] See Example 3 for the specific method.

human CLDN18.2 [3] = target: T1, human CLDN18.2; test: FACS, KATOIII cells (natural CLDN18.2)
Method: as §1

B1: humanized antibody hz28G3-1.2 (antibody, human IgG1, kappa, V domains shown)
VH: QVQLVQSGAEVKKPGASVKVSCKASGYTFTDYLMLWVRQAPGQGLEWMGNINPYYGRTYYALKFQGRVTMTVDRSTSTVYMELSSLRSEDTAVYYCARDGYSLRNAMDYWGQGTLVTVSS
VL: DIVMTQSPDSLAVSLGERATINCKSSQSLFNSGNQKNYLAWYQQKPGQPPKLLIYGASTRESGVPDRFSGSGSGTDFTLTISSLQAEDVAVYYCQNAHSYPYTFGQGTKVEIKR
In the case of B1, the “ADCC EC50, Jurkat-CD16a v158-NFAT-luciferase effector cells, KATOIII target cells” value (“ADCC EC50 … KATOIII target cells” below) (human CLDN18.2 [1]) is reported as 0.396 nM, the “ADCC EC50, Jurkat-CD16a v158-NFAT-luciferase effector cells, U2OS-CLDN18.2 target cells” value (“ADCC EC50 … U2OS-CLDN18.2 target cells” below) (human CLDN18.2 [1]) is reported as 0.015 nM and the EC50 (human CLDN18.2 [2]) is reported as 14.1 nM. It also gave an EC50 (human CLDN18.2 [3]) of 5.84 nM.

B2: humanized antibody hz28G3-2.1 (antibody, human IgG1, kappa, V domains shown)
VH: QVQLVQSGAEVKKPGASVKVSCKTSGYSFTDYLMLWVRQAPGQGLEWMGNINPYYGRTTYALKFKGRVTMTVDRSTSTVYMELSSLRSEDTAVYYCARDGYSLRNAMDYWGQGTLVTVSS
VL: DIVMTQSPYSLAVSLGERATINCKSSQSLFNSGNQKNYLAWYQQKPGQPPKLLIYGASTRESGVPDRFTGSGSGTDFTLTISSLQAEDVAVYYCQNAHSYPYTFGQGTKVEIKR
B2 was tested, and the “ADCC EC50 … KATOIII target cells” value (human CLDN18.2 [1]) was 0.184 nM, the “ADCC EC50 … U2OS-CLDN18.2 target cells” value (human CLDN18.2 [1]) was 0.019 nM and the EC50 (human CLDN18.2 [2]) was 12.1 nM. It also gave an EC50 (human CLDN18.2 [3]) of 7.25 nM.

B3: humanized antibody hz28G3-2.3 (antibody, human IgG1, kappa, V domains shown)
VH: QVQLVQSGAEVKKPGASVKVSCKTSGYSFTDYLMLWVRQAHGQSLEWMGNINPYYGRTTYALKFKGRVTMTVDRSTSTVYMELSSLRSEDTAVYYCARDGYSLRNAMDYWGQGTLVTVSS
VL: DIVMTQSPYSLAVSLGERATINCKSSQSLFNSGNQKNYLAWYQQKPGQPPKLLIYGASTRESGVPDRFTGSGSGTDFTLTISSLQAEDVAVYYCQNAHSYPYTFGQGTKVEIKR
For B3, the “ADCC EC50 … KATOIII target cells” value (human CLDN18.2 [1]) was 0.209 nM, the “ADCC EC50 … U2OS-CLDN18.2 target cells” value (human CLDN18.2 [1]) was 0.019 nM and the EC50 (human CLDN18.2 [2]) was 11.9 nM. For the same binder, the EC50 (human CLDN18.2 [3]) was 6.54 nM.

B4: humanized antibody hz28G3-1.4 (antibody, human IgG1, kappa, V domains shown)
VH: QVQLVQSGAEVKKPGASVKVSCKASGYTFTDYLMLWVRQAHGQSLEWMGNINPYYGRTYYALKFQGRVTMTVDRSTSTVYMELSSLRSEDTAVYYCARDGYSLRNAMDYWGQGTLVTVSS
VL: DIVMTQSPDSLAVSLGERATINCKSSQSLFNSGNQKNYLAWYQQKPGQPPKLLIYGASTRESGVPDRFSGSGSGTDFTLTISSLQAEDVAVYYCQNAHSYPYTFGQGTKVEIKR
In the case of B4, the “ADCC EC50 … KATOIII target cells” value (human CLDN18.2 [1]) is reported as 0.184 nM, the “ADCC EC50 … U2OS-CLDN18.2 target cells” value (human CLDN18.2 [1]) is reported as 0.017 nM and the EC50 (human CLDN18.2 [2]) is reported as 14 nM. For the same binder, the EC50 (human CLDN18.2 [3]) was 5.83 nM.

B5: humanized antibody hz28G3-2.2 (antibody, human IgG1, kappa, V domains shown)
VH: QVQLVQSGAEVKKPGASVKVSCKASGYTFTDYLMLWVRQAPGQGLEWMGNINPYYGRTYYALKFQGRVTMTVDRSTSTVYMELSSLRSEDTAVYYCARDGYSLRNAMDYWGQGTLVTVSS
VL: DIVMTQSPYSLAVSLGERATINCKSSQSLFNSGNQKNYLAWYQQKPGQPPKLLIYGASTRESGVPDRFTGSGSGTDFTLTISSLQAEDVAVYYCQNAHSYPYTFGQGTKVEIKR
With B5 the “ADCC EC50 … KATOIII target cells” value (human CLDN18.2 [1]) was 0.861 nM, the “ADCC EC50 … U2OS-CLDN18.2 target cells” value (human CLDN18.2 [1]) was 0.017 nM and the EC50 (human CLDN18.2 [2]) was 12.4 nM. The EC50 (human CLDN18.2 [3]) was 5.92 nM.

B6: humanized antibody hz28G3-2.4 (antibody, human IgG1, kappa, V domains shown)
VH: QVQLVQSGAEVKKPGASVKVSCKASGYTFTDYLMLWVRQAHGQSLEWMGNINPYYGRTYYALKFQGRVTMTVDRSTSTVYMELSSLRSEDTAVYYCARDGYSLRNAMDYWGQGTLVTVSS
VL: DIVMTQSPYSLAVSLGERATINCKSSQSLFNSGNQKNYLAWYQQKPGQPPKLLIYGASTRESGVPDRFTGSGSGTDFTLTISSLQAEDVAVYYCQNAHSYPYTFGQGTKVEIKR
B6 was tested, and the “ADCC EC50 … KATOIII target cells” value (human CLDN18.2 [1]) was 0.275 nM, the “ADCC EC50 … U2OS-CLDN18.2 target cells” value (human CLDN18.2 [1]) was 0.017 nM and the EC50 (human CLDN18.2 [2]) was 14.2 nM. The EC50 (human CLDN18.2 [3]) was 5.62 nM.
